Test results reported in patent US20220033450A1, “VIRALLY EXPRESSED INHIBITORS OF PDZ DOMAINS, SUCH AS PICK1 AND USES THEREOF” (University of Copenhagen, priority 2018, published 2022).

Molecular target: Protein Interacting with C Kinase-1 (PICK1), Q9EP80
Assay: FP competition, PICK1 0.15 µM, tracer PEG4 linked dimeric C5 20 nM

Sequence of Protein Interacting with C Kinase-1 (PICK1), Q9EP80 (Q9EP80 whole entry): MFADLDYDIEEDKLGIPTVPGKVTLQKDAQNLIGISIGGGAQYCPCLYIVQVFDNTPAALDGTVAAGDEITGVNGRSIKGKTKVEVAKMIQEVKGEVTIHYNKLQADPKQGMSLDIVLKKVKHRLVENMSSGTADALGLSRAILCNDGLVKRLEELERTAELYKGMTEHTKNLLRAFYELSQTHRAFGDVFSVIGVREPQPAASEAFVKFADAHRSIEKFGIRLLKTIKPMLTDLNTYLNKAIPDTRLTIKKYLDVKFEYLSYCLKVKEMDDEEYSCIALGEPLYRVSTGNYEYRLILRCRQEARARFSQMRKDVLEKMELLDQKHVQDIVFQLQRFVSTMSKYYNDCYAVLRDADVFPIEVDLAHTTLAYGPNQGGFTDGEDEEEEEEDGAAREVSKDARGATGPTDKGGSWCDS

- fold increase in affinity over DATC5: 16 fold
B1: SSO10a-GS4-HWLKV (designed binder)
peptide: GEELLEDIRKFNEMRKNMDQLKEKINSVLSIRQGGGGSHWLKV
modifications: not checked
